Assay results from patent US20240343821A1, “OFATUMUMAB FOR TREATING PEDIATRIC MS” (NOVARTIS AG, priority 2021, published 2024).

Columns and labels:
Assay type in all cases: in vivo, human
[1] = Ofatumumab half-life at steady state after subcutaneous administration; details: following subcutaneous administration of repeated 20 mg doses
Procedure: The half-life of ofatumumab at steady state can be approximately 16 days, in particular following subcutaneous administration of repeated 20 mg doses.

[2] = system: B cells; experiment: B cell depletion under the claimed ofatumumab dosage regimen; details: loading dose weeks 0, 1, 2; maintenance from week 8 every six weeks
From the text: This has been completely surprising because there are significant differences between adult patients and pediatric patients. These differences relate, inter alia, to physiology, metabolism, and body weight. In this context, it is also noted that there is a higher baseline B cell count in children compared to adults and, therefore, it would not have been expected that the claimed dosage regimen is able to consistently deplete B cells in patients as defined in the claims.

[3] = Immunoglobulin (IgG) levels under long-term ofatumumab therapy; details: in the long run, long-term treatment
From the text: Generally, side effects and adverse events associated with B cell-depleting therapies such as ocrelizumab therapy are reported to be associated with a reduction of immunoglobulins (e.g. IgG).

[4] = Multiple Sclerosis Impact Scale (MSIS-29) under ofatumumab; details: administration of ofatumumab
Procedure: The MSIS-29 version 2 is a 29-item, self-administered questionnaire that includes 2 domains: physical and psychological. Responses were captured on a 4-point ordinal scale ranging from 1 (not at all) to 4 (extremely), with higher scores reflecting greater impact on day-to-day life. The MSIS-29 takes about 5 minutes to complete and the questions are designed to determine the patient's views about the impact of MS on their day-to-day life during the past 2 weeks. Reference is made to Hobart J and Cano S (2009), “Improving the evaluation of therapeutic interventions in multiple sclerosis: the role of new psychometric methods”, Health Technol Assess; 13(12):iii, ix-x, […] to Hobart J, Lamping D, Fitzpatrick R, et al (2001), “The Multiple Sclerosis Impact Scale (MSIS-29): a new patient-based outcome measure”, Brain; 124(Pt 5):962-73.

## Ofatumumab
[1]
  half-life at steady state: approximately 16 days
[2]
  depletion of B cells (B cell count threshold): < 8 cells per microliter
[3]
  reduction of immunoglobulins (e.g. IgG): does not cause reduction of immunoglobulins
[4]
  MS impact scale MSIS-29: advantageous reduction
